Drawing on publication PMC10958042, this text covers screen value for 23 variants.

B1: ATGL (PNPLA2, patatin-like phospholipase domain-containing protein 2), human, full length / G0S2 (G0/G1 switch protein 2), human (parent)
chain 1: MFPREKTWNISFAGCGFLGVYYVGVASCLREHAPFLVANATHIYGASAGALTATALVTGVCLGEAGAKFIEVSKEARKRFLGPLHPSFNLVKIIRSFLLKVLPADSHEHASGRLGISLTRVSDGENVIISHFNSKDELIQANVCSGFIPVYCGLIPPSLQGVRYVDGGISDNLPLYELKNTITVSPFSGESDICPQDSSTNIHELRVTNTSIQFNLRNLYRLSKALFPPEPLVLREMCKQGYRDGLRFLQRNGLLNRPNPLLALPPARPHGPEDKDQAVESAQAEDYSQLPGEDHILEHLPARLNEALLEACVEPTDLLTTLSNMLPVRLATAMMVPYTLPLESALSFTIRLLEWLPDVPEDIRWMKEQTGSICQYLVMRAKRKLGRHLPSRLPEQVELRRVQSLPSVPLSCAAYREALPGWMRNNLSLGDALAKWEECQRQLLLGLFCTNVAFPPEALRMRAPADPAPAPADPASPQHQLAGPAPLLSTPAPEARPVIGALGL
chain 2: METVQELIPLAKEMMAQKRKGKMVKLYVLGSVLALFGVVLGLMETVCSPFTAARRLRDQEAAVAELQAALERQALQKQALQEKGKQQDTVLGGRALSNRQHAS

The variants in the experiment derive from B1. The experiment can be described thus: LUMIER: Protein A-ATGL variant and firefly luciferase-partner co-expressed in HEK293T, lysates immunoprecipitated on IgG-coated plates, co-precipitated partner measured as luciferase luminescence. The following applies: with G0S2 (G0/G1 switch protein 2), transient co-transfection, IgG-coated LUMITRAC plates, 2 h at 4 °C, three PBS washes, Bright-Glo luciferase reagent, triplicates per assay, two …, scale: log2 fold change of co-immunoprecipitated luminescence relative to wild-type ATGL within each experiment.

For the variant chain 1 S106K, the screen value (parent: 0.26, not graded) is -0.922 and the screen value (parent: 0.56, not graded) is -1.29.
The matching figures for chain 1 S158A: -0.121 and 0.343.
Turning to chain 1 S158E, the screen value runs as follows: (parent: 0.26, not graded) -0.0501; (parent: 0.56, not graded) 0.0613.
Turning to chain 1 R351L, the screen value (parent: 0.26, not graded) turned out to be 0.121 and the screen value (parent: 0.56, not graded) came to 0.273.
The corresponding values for chain 1 P103K are -0.0704 and 6.88e-05.
The corresponding values for chain 1 V127L are 0.199 and 0.376.
For chain 1 Y415A, the screen value is, setting by setting: (parent: 0.26, not graded) -0.00445; (parent: 0.56, not graded) -0.27.
Take chain 1 R113K: the screen value (parent: 0.26, not graded) is 0.927 and the screen value (parent: 0.56, not graded) was -0.0371.
As for chain 1 R113L, the screen value (parent: 0.26, not graded) was -0.0286 and the screen value (parent: 0.56, not graded) is -0.429.
Take chain 1 R95K: the screen value is, setting by setting: (parent: 0.26, not graded) 0.105; (parent: 0.56, not graded) 0.0501.
The matching figures for chain 1 R95L: -0.0587 and -0.569.
For the variant chain 1 T41A, the screen value came out at 0.0368 (parent: 0.26, not graded) and 0.0587 (parent: 0.56, not graded).
As for chain 1 P86K, the screen value is, setting by setting: (parent: 0.26, not graded) -0.894; (parent: 0.56, not graded) -0.783.
On to chain 1 Q140A, for which the screen value runs as follows: (parent: 0.26, not graded) 0.0979; (parent: 0.56, not graded) 0.734.
Consider chain 1 Q140K, for which the screen value runs as follows: (parent: 0.26, not graded) 0.195; (parent: 0.56, not graded) -0.175.
The matching figures for chain 1 R329E: -0.556 and -0.22.
Consider chain 1 V328A, for which the screen value reads like this: (parent: 0.26, not graded) -2.09; (parent: 0.56, not graded) -2.9.
The corresponding values for chain 1 Q396A are -1.32 and -1.71.
Take chain 1 P156K: the screen value by setting is: (parent: 0.26, not graded) -2.18; (parent: 0.56, not graded) -2.45.
For chain 1 S87E, the screen value is -0.559 (parent: 0.26, not graded) and -1.39 (parent: 0.56, not graded).
On to chain 1 S87A, for which the screen value is, setting by setting: (parent: 0.26, not graded) -0.675; (parent: 0.56, not graded) -0.33.
For chain 1 P258L, the screen value runs as follows: (parent: 0.26, not graded) -1.36; (parent: 0.56, not graded) -1.64.
On to chain 1 R163K, for which the screen value by setting is: (parent: 0.26, not graded) 0.411; (parent: 0.56, not graded) 0.335.
